Patent US20200338049A1, “AGENT FOR TREATING FABRY DISEASE, ANALGESIC FOR EXTERNAL USE AND PERSPIRATION ACCELERATOR” (OSAKA UNIVERSITY, priority 2016, published 2020)

Tests used:
[1] = tested on: dorsal root ganglion cells (DRG cells); test: Axon extension of cultured dorsal root ganglion cells; format: cell-based; conditions: DRG cells of 20-week-old wild-type mouse
Experimental: Dorsal root ganglion cells (DRG cells) were taken from a 20-week-old wild-type mouse. The dorsal root ganglion nerve cells thus taken were first subjected to extraction with Ham's 12 containing 30% Percoll, and then were cultured at 37° C. for 2 days with the use of a Gibco Neurobasal-A medium (manufactured by Gibco) supplemented with 2 mM GlutaMaxl, 2% B-27 w/o Vitamin A, 5 ng/mL recombinant BDNF carrier free, and 10 ng/mL recombinant human-beta NGF carrier free. Then, the culture medium was replaced with a medium supplemented with 2 mM GlutaMaxl, 2% B-27 w/o Vitamin A, 10 μM Retinoic Acidn, and 100 ng/mL recombinant human-beta NGF carrier free, and then a comparative observation of the extension of axons was carried out with a microscope (BZ-X710, manufactured by KEYENCE), and microscope images were taken.

p-mTOR = p-mTOR staining of angiokeratoma of Fabry disease patient before and after ERT; format: in vivo, human; conditions: p-mTOR fluorescent staining
Source text: (§1) The activation state of mTOR in an angiokeratoma of a Fabry disease patient, and the effects of ERT (conventional treatment method to treat Fabry disease) on an angiokeratoma, were checked. An enzyme used in ERT of this test was agalsidase beta, and specific processes of the treatment method were based on usual dosages.
A piece of the skin of a Fabry disease patient including an angiokeratoma lesion was stained with an anti-p-mTOR antibody, and the activation state of mTOR was checked.

[2] = tested on: angiokeratoma of Fabry disease patient; test: Course of angiokeratomas of Fabry disease patient receiving ERT; format: in vivo, human; conditions: ERT over eight years
Source text: as §1

B1: BDNF: recombinant BDNF carrier free, brain-derived neurotrophic factor (protein, UniProt P23560 19-247, looked up)
Neurotrophic factor BDNF …: APMKEANIRGQGGLAYPGVRTHGTLESVNGPKAGSRGLTSLADTFEHVIEELLDEDQKVRPNEENNKDADLYTSRVMLSSQVPLEPPLLFLLEEYKNYLDAANMSMRVRRHSDPARRGELSVCDSISEWVTAADKKTAVDMSGGTVTVLEKVPVSKGQLKQYFYETKCNPMGYTKEGCRGIDKRHWNSQCRTTQSYVRALTMDSKKRIGWRFIRIDTSCVCTLTIKRGR
extension of axons [1]: axons were found to have extended

B2: agalsidase beta (protein, UniProt P06280 32-429, looked up)
Alpha-galactosidase A: LDNGLARTPTMGWLHWERFMCNLDCQEEPDSCISEKLFMEMAELMVSEGWKDAGYEYLCIDDCWMAPQRDSEGRLQADPQRFPHGIRQLANYVHSKGLKLGIYADVGNKTCAGFPGSFGYYDIDAQTFADWGVDLLKFDGCYCDSLENLADGYKHMSLALNRTGRSIVYSCEWPLYMWPFQKPNYTEIRQYCNHWRNFADIDDSWKSIKSILDWTSFNQERIVDVAGPGGWNDPDMLVIGNFGLSWNQQVTQMALWAIMAAPLFMSNDLRHISPQAKALLQDKDVIAINQDPLGKQGYQLRQGDNFEVWERPLSGLAWAVAMINRQEIGGPRSYTIAVASLGKGVACNPACFITQLLPVKRKLGFYEWTSRLRSHINPTGTVLLQLENTMQMSLKDLL
modifications: agalsidase beta
notes: enzyme replacement therapy; enzyme used was agalsidase beta, usual dosages
mTOR activity in angiokeratoma after ERT (p-mTOR): mTOR is also active | effect on angiokeratomas [2]: not effective in treating angiokeratomas
